Results as given in paper PMC4086937, “Two Modes of Regulation of the Fatty Acid Elongase ELOVL6 by the 3-Ketoacyl-CoA Reductase KAR in the Fatty Acid Elongation Cycle” (PLoS ONE, 2014).

What was measured:
[1] = target: T1, KAR (Homo sapiens, UniProt Q53GQ0); test: coupled elongation with ELOVL6, […]malonyl-CoA, TLC; assay type: biochemical; settings: 1 mM NADPH; co-reconstituted ELOVL6; 8 µM C16:0-CoA; 27.3 µM [14C]malonyl-CoA; pH 6.8; 37 °C; 90 min
T1 construct: gene HSD17B12; N-terminal 3xFLAG, kept; HEK 293T expressed; anti-FLAG purified, co-reconstituted with ELOVL6 in POPC proteoliposomes; 36 kDa and faint N-glycosylated 39 kDa
T1 sequence (Q53GQ0 1-312): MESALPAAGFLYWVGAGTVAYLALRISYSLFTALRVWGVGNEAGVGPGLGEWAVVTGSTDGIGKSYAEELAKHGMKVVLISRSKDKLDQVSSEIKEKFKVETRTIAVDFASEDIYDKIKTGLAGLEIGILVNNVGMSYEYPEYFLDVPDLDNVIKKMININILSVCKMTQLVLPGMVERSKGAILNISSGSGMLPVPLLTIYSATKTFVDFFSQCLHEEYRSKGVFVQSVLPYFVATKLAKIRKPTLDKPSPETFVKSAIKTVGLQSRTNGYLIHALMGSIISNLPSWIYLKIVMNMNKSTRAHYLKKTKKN
T1 sequence (Q9H5J4 1-265 partner): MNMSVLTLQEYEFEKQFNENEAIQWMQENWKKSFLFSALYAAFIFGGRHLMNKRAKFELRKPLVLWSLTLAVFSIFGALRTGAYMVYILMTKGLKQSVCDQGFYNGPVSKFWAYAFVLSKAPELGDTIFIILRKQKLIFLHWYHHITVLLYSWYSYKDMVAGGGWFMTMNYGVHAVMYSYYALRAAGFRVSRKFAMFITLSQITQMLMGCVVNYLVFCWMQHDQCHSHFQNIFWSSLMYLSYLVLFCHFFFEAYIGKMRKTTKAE

[2] = target: T2, 3xFLAG-ELOVL6 (fatty acid elongase ELOVL6) (human) (UniProt Q9H5J4)
T2 sequence: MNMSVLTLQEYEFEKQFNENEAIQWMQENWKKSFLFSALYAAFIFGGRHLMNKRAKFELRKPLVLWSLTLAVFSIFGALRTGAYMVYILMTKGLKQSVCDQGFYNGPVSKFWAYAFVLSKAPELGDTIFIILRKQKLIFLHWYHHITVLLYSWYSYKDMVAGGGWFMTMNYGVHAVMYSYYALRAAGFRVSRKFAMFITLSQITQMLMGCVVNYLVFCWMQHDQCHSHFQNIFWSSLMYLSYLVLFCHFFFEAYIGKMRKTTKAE

[3] = target: T2, 3xFLAG-ELOVL6 (fatty acid elongase ELOVL6) (human); remark: listed apart in the source
[4] = substrate: CC(C)(COP(=O)(O)OP(=O)(O)OC[C@H]1O[C@@H](n2cnc3c(N)ncnc32)[C@H](O)[C@@H]1OP(=O)(O)O)[C@@H](O)C(=O)NCCC(=O)NCCSC(=O)CC(=O)O; test: purified protein; assay type: biochemical, Homo sapiens; settings: 8 µM C16:0-CoA, proteoliposomes, pH 6.8, 37 °C, 90 min, ELOVL6 alone, labelled compound
[5] = substrate: CCCCCCCCCCCCCCCC(=O)SCCNC(=O)CCNC(=O)[C@H](O)C(C)(C)COP(=O)(O)OP(=O)(O)OC[C@H]1O[C@@H](n2cnc3c(N)ncnc32)[C@H](O)[C@@H]1OP(=O)(O)O; test: purified protein; assay type: biochemical, Homo sapiens; settings: 27.3 µM [14C]malonyl-CoA, proteoliposomes, pH 6.8, 37 °C, 90 min, ELOVL6 alone

With `NC(=O)C1=CN([C@@H]2O[C@H](COP(=O)(O)OP(=O)(O)OC[C@H]3O[C@@H](n4cnc5c(N)ncnc54)[C@H](OP(=O)(O)O)[C@@H]3O)[C@@H](O)[C@H]2O)C=CC1` [NADPH] the “coupled elongation with ELOVL6, [14C]malonyl-CoA, TLC” value [1] was “caused production of 3-hydroxyacyl-CoA with a large increase in product levels”.

B1: 3xFLAG-KAR (3-ketoacyl-CoA reductase KAR), wild type (enzyme)
chain: MESALPAAGFLYWVGAGTVAYLALRISYSLFTALRVWGVGNEAGVGPGLGEWAVVTGSTDGIGKSYAEELAKHGMKVVLISRSKDKLDQVSSEIKEKFKVETRTIAVDFASEDIYDKIKTGLAGLEIGILVNNVGMSYEYPEYFLDVPDLDNVIKKMININILSVCKMTQLVLPGMVERSKGAILNISSGSGMLPVPLLTIYSATKTFVDFFSQCLHEEYRSKGVFVQSVLPYFVATKLAKIRKPTLDKPSPETFVKSAIKTVGLQSRTNGYLIHALMGSIISNLPSWIYLKIVMNMNKSTRAHYLKKTKKN
Molecule B1 has an in vitro FA elongation assay, purified ELOVL6 and KAR co-reconstituted into proteoliposomes, without NADPH: 3-ketoacyl-CoA levels compared to ELOVL6 alone [2] of 3 fold and an in vitro FA elongation assay, purified ELOVL6 and wild type KAR in the same proteoliposomes, with 1 mM NADPH: product levels compared to ELOVL6 alone [2] of 8 fold.

B2: 3xFLAG-KAR S189A (enzyme)
chain: MESALPAAGFLYWVGAGTVAYLALRISYSLFTALRVWGVGNEAGVGPGLGEWAVVTGSTDGIGKSYAEELAKHGMKVVLISRSKDKLDQVSSEIKEKFKVETRTIAVDFASEDIYDKIKTGLAGLEIGILVNNVGMSYEYPEYFLDVPDLDNVIKKMININILSVCKMTQLVLPGMVERSKGAILNISAGSGMLPVPLLTIYSATKTFVDFFSQCLHEEYRSKGVFVQSVLPYFVATKLAKIRKPTLDKPSPETFVKSAIKTVGLQSRTNGYLIHALMGSIISNLPSWIYLKIVMNMNKSTRAHYLKKTKKN
With B2 the in vitro FA elongation assay, purified ELOVL6 and KAR S189A co-reconstituted into proteoliposomes, with and without 1 mM NADPH: ELOVL6 activity compared to ELOVL6 alone [3] was 3 fold.

B3: ELOVL6 (Homo sapiens) (protein)
chain: MNMSVLTLQEYEFEKQFNENEAIQWMQENWKKSFLFSALYAAFIFGGRHLMNKRAKFELRKPLVLWSLTLAVFSIFGALRTGAYMVYILMTKGLKQSVCDQGFYNGPVSKFWAYAFVLSKAPELGDTIFIILRKQKLIFLHWYHHITVLLYSWYSYKDMVAGGGWFMTMNYGVHAVMYSYYALRAAGFRVSRKFAMFITLSQITQMLMGCVVNYLVFCWMQHDQCHSHFQNIFWSSLMYLSYLVLFCHFFFEAYIGKMRKTTKAE
notes: N-terminal 3xFLAG, kept; HEK 293T expressed; Triton X-100 solubilized, anti-FLAG purified, reconstituted in POPC proteoliposomes; 29 kDa and N-glycosylated 32 kDa
B3 showed a Km [4] of 6.46 µM and a Km [5] of 1.22 µM.
